Drawing on the NTF2 design screens of Basanta et al. (2020), this text covers protease stability score for 47 sequences.

The series can be described thus: protease stability score; higher = more stable; yeast display proteolysis, trypsin and chymotrypsin.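 Also: log10 excess protease needed over predicted unfolded state with 0 meaning unfolded.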
Regarding “DEDRMRELMKVMMDAVRNGNQEQAYKVMDEGGEFHVGDKTVRGPEQVKEYVKEVQDWGNHVEYKETHYEGDTATVKTQAHLGDVTVDFEVHYVVKGNKLKRFEVRFNKEQIKEFKKS”, the protease stability score is 0.593.

Take “DEEKVRHQATRFFKALQTNDEDHAVKLADENVRIVIGDKTLRGREDLKDFVRKIKNQADRVELKSVEVHGNKAKLDFIVHVNGRRVKITMVIEVDNGRVSQLELNPHDVRKMEQ”: the protease stability score was found to be 1.42.

“DETTEASKLLHRINTAWQTNDPDQFQEQFDENARAKVGDKTVHGRKNMNELLKRLVENVDHIDVQVVDFRVDGDKLVIYFRVQNEHNGKHEHDQYAIWAVDRNGHVRAIEWHES” yielded a protease stability score of 0.272.

Regarding “EEEKLQKVAKEMFDAVQKGNVDKLKKLGKEDVEFQFVDHRVKGADHYLQIMKKQLDHGVQFEIKQAQVKDNTVTMTTQVQYGDKTVRVEAKAEYDGGRLQRAEVKLTEEAKEAQKKG”, the protease stability score was -0.026.

“DDEVKKEAEKMVEIIMHGDPDKVRNQFDPNAKMQIGDKELHGQEQLRDHLKRMNDHLRIDLKSVSARLDGNHIHLDVLFVKEHNGKPEEQRVEFVADIHNGKIVSASVEHVD” showed a protease stability score of 0.54.

Turning to “EERLQELAERWWKARRTGDPHKIRDLLDKDVRVEYGNKSIHGRENIAHEIVRQLKHLRLDEKVERIDRSNGHVRATLSVTVNINGQPYTYRFELRIRAHNGKVKKIELRMPEEVVRRLDT”, the protease stability score was 1.73.

For “DDRQQRVMEKILTAVQKGDEKKVKDQMDPNVKVHVGEFHYQGEEQLEKTLRHRTKELEIEYREITFRVDNGNVHVDVKAQLNNNGKPQQFTQHFSAEVDGDRVKTVHVEVKQ”, the protease stability score is -0.533.

In turn, “DNEVAHNIMRAFKQQWRGNEDKALELMDPNAEVHVGNKQIHGMEEWVRRTAHKARRARVKVSRIDVTVHNGKVRIKMNYTVSVNGKPISWHADITVQADNGRAKHITQQVPEDLEERERG” came in with a protease stability score of 0.112.

The sequence “DKENLETLHELMTALERGDEQKVADEIDPNAKLQYGDKEIHGRKQAHRFIKTVKDQQRFHIQVKDLKVKGDTMDLRAEVEFQHNGHPDSDVIVVNARAHNGHISTLTVTKDD” displayed a protease stability score of -0.223.

Consider “DEQQAKRVAEEFNRVLQTGDNRKAMQLADKDVKLHVGDKDVHGRETMMKLVRKERDRVDHVEIKEVTIQGNKIDVILTVVVNGRHKEKHYVLHLHNGRIEDLSVRST”, for which the protease stability score was 0.005.

“DEREHAEDYARQLDKAFRTGNPDEVMKQVDKDAHFQVGERRFHGEDEFKKWAEEVFERADHIHFRVREVTRQGDKIDVDMQVDMTTNGKRETDKVRALIDTQNGRQRVDEMTFK” displayed a protease stability score of 0.651.

Sequence “DQDALRKWEEILKAMETGDREKVAQLVDPNARVVYGDKEVRGRESIRKRVKEIRDELRFSMELKRFDDHNGRASATLKMNAEHNGQPIHRTASVEIEVQNGRIKSMEIQLRG” had a protease stability score of 0.062.

Sequence “DHDLQKTWKDQAAEALQTGDPREFEKMVDENVNVIYGDKTYHGRKQASNLAQRLQKQIDHIRLHSVSIRGDEVNVDLTVNVNGTEMRYHMTARVHNGKVKELKFDPDFVRKAQK” gave a protease stability score of 0.174.

On to “DEKKIYEVLHKAVQMYVSGNDEEVRKLLKKDAEIEVADHKYRGVDEVVKVVDQFRKYGVELQIDDAKFDGNKVNAELTLHAGGETWKFTVTAEADGGKVDKVTFHVTEEVKKRIQKG”, for which the protease stability score was -0.045.

For the sequence “DEEERRKAHELVKHNDWDKLMKNAPPDVTARIGDRTVHGMEEQVRIEHNMLRRVDENQLHSVDNSGNQLVVTLHVQINGRRFKFTVKIVIHNGQVTTVKVQARDEKEKRKLTELMG”, the protease stability score worked out at 0.566.

For the sequence “EEENFNRANEFMKAVETNDPDKLKHNADENVQITYGDKSYQGRESWAKDLQRKLKHMRWRYEFKSYHDTGDSVDVSLRVMATVNGKPRDFHLRMIIHFKNGKIKNIELRLDPDELDKLES”, the protease stability score amounted to 0.648.

In turn, “DPTKVDHVARRVLEYMVKGNAEEVRKMVKPNAEAQTGDQKYKGQDEIHKMVKTLKDYGIEVKRDEVRVDGGHAQLKIRANIGDRTYTARWQVEAKDGKVDRIQMDISEDLKKAIKHG” registered a protease stability score of -0.022.

On to “DHRAVEVIKEMFKALQTGDERRIVEMADKDATATVGDKRVHGMKEAAHDIATEFNEMRFQLSIKRVQHSGNNVKADVEATFHHNGKPRKVQVVIVLRLHNGKVQEMSIRNDG”, for which the protease stability score was 1.17.

Sequence “DEEVLDFVKTMIKVEETGDEEKLKEMFDKNVKARVGDKKYHGMDHQARTIRKERESIKFKIKSITMRYKDGRVHASARVVRHENGKPDEYRETYVLQIHNGKVKTYSKQTDS” came in with a protease stability score of -0.188.

Regarding “DDEERRKLADDLIKILQTGSSNDVRKLVDPNAKAHYGEKDFHGERELAKFMKEIADNVDHIEIETMEVHGDRVKIVMVIVHNGKQRRFVMVLVVHNGRIKKASQTSQ”, the protease stability score was found to be 1.46.

As for “DEKRLKEVAKKVFEAVQKGDTEKLKKLGKEDGKFQFLDHRYKGKEEYARIMQKLKKHGVQFEIKKYQVKDNKVRMETVVTYGDQTFTVEAEARYEGGQLDEARVEMTEEAKERLKQG”, the protease stability score was -0.084.

Sequence “DDTNVRKVKEYLKAVEHGDEETLRENVDENATVQVGDHSIHGMDNIAKKIKKDRDELRWEIKELEAEAHNGHVNVRVDARYEVNGNPIEDKFTMHFKFENGRVESVEIRVPEEFQKRVDR” displayed a protease stability score of 0.165.

Sequence “DEDKNKKRAEEWQRILEDNDEERFSKLADKDVRFVIGDKEVHGSEQAETWIRTIKHRVDHIQLEDMKVNGNKIVIDLVMVHNGRKHRYKVVMEFHNGSVKYVQYNDS” returned a protease stability score of -0.06.

With “DEQDLKKVREFVQAQEEGDEDKLRELMDPNARVRVGDHRINGMDEIVKTDKKEVDDIKLSITDLKMHVKGDHMKVRIHQIVNHNGRPHTKTVDVVAHRHNGRLKSMERQDTK”, the protease stability score is -0.122.

For the sequence “DEHHAAKRLMDNLLQAMRTGDTDTLKKLADPNVRIDVGDKTYHGREQFLQWMKELVKHVDSVHVDIKRFTVDGNNATIDAEARRDVNGNDHSEKVSVVAEVSGDKMHLKEIQYR”, the protease stability score stood at 1.04.

Regarding “DEKNDRVLRRVMEAIHRGDPDKIHNQLDPNVKAEVGDKRFHGMEHIVEQVKRNWDNMRMRMKDVTVEDHNGQANAKVTYEVTENGQPKRAHVTVQAHAHDGRLTSVTYDTHE”, the protease stability score is -0.371.

In turn, “DERAHEAIENWLRAEQTNDPKQVKDNADPNARVHVGDKVLHGMEEIQDELKRRIDQARYHIKDFHIDIQGEKAQIDREYTFSINGRPMSNTVRQEAKVDNGKIKEVNFRVSEELEDQEHK” yielded a protease stability score of -0.242.

On to “EENNLELAHRVMENIQTNNPDEVVKQLDPNARIQVGDKVYHGREQARKMVEDLIDRLRVQIDSVDLEVQGDKAQLEFTQIEEHNGRPNSAKFIVDVTVHNGRVQNMEFREHK”, for which the protease stability score is 0.891.

On to “DDERRKKQVDTFNKAFEKGDESQIRKLFDKDAKARVGDKHYHGKEQVARMVKTFVHQVDHMQFKSVRVQGDKVRADVTVKVNGNTARFTIEIRIHNGKIQHASIDPRNMEKMKR”, for which the protease stability score is -0.073.

“DEEFNKVLEEALHAMHKGDPDKLNKNLDEDAKIKYGDKTVHGREDATKLLETIVKNARIQIDSFRVTSRGEKAVADVRLRYRINGKPIDVKMIIYAKNDNGRIKEVEYKIDPDELRKVEG” showed a protease stability score of 1.28.

Turning to “DEENMEVYQTQLKVEQRGNEEELVKLIDPNAEVRIGDKQVKGRENIAHTIKQETDKMERKIESLNLSAHNGEIHIKATVVQTHNGEPRTDSYVMRIHLHNGRLKQMDVHKSN”, the protease stability score is 0.541.

On to “DEEKILRVLKEVVKAIQNGNKEEVRKKGKPDVEVQLADERNRGVDQLVRLAEFDKKLGVQFEYKETRQKGGKMTTVVEVTLDGTTIRYEVHVEAEGGKVKRWEVRMDKKFIRIAQES”, for which the protease stability score is 0.077.

In the case of “DEHLFKRLVDIIKHGNFEELARQADENARVVVGDRTVKGRNEVEELMQRLRQKIDHVQIDHWSRHGDTVTISFVANVNGRRLEFTLMAAFDNGRIHEVVFHSTNEEVTKIMKEILS”, the protease stability score was found to be 1.93.

Consider “DHEAQKALRDVIEAIRENNPDEVKKQLDKNATVRVGDKRLHGTEEQRREVQKKLDEIRIRYQDIKMETSGDTVRASIQFVENHNGEPQRDRVTASMSADNGRVKHFVVTETQ”, for which the protease stability score was -0.041.

For “DERVNREWEKFIHAFESGNESQLKRLMDKDVRLTVGDKQIEGREEMARQLKKRRDQSRVSINIESVQHDGDKVHIQFHVTNNKNGRPEKRTSVVTVEAHNGKLKEVNIDDKP”, the protease stability score was 0.803.

“DEEANEMAKSYLEAKTRGDPRSAKELADKDAEFVVGDKTYQGMDENSDNMRRERDEQRTKVKILHLDDRPNHAVIKYRVEVQTNGQPRTKNYELNLQYSNGKIKYVRVEDRK”: the protease stability score was -0.027.

For the sequence “DDEQANEIISIMETGDPDKLSNMADENAKIVIGDTQIHGREDYERVATILYKQIDHHHFEHLTFTGDKVVIVWQYVVNGKQVRQRVKFDVHNGRLKHMRMEFTDPEELKIVEEILS”, the protease stability score was found to be 1.59.

Sequence “DNTIKRKFHDLIRAWQTNDENRYMQLFDPNVKIRVGNQQFHGREDWSKWFREQMTHLRNDFTVKSLEVDGDKVVADIVAVLSINGRPNKMRVDYRMTVHNGKIKSAEMRFSHEIETKIEQ” had a protease stability score of 1.46.

“EEENVKLVERFLKAVLEGDEDQLRRLMDPNARVRVGDKVLTGRDRVAEHFKERSQQWQFHIDVKHVSVNGDHIIMHFQFSMTVNGQPRSATMTAVFRVHNGRIQQVEFRLPEEDQKTIRG” returned a protease stability score of 0.811.

As for “DDHDRLRKFFETLLKNYQHNNEEHATKMADKDARFDVGDKTVNGNKQNAKEMAERVRESDHYHAKIQSYRVEGDKAHFQFVASVVHNGRERHFKVQMELKLHNGSLKIVRLRNS”, the protease stability score was 0.966.

“DTEVIHVLKRIMHAINEGDESQVRKNADPNVKVRVGNKSIHGREQLVEQMRRDVEEIRLEYKSFDAKDSDGHARARVKYQNEFNGKPQEKDDRATAVAHNGHLKSIRWRVPEDDLRDQDT” displayed a protease stability score of -0.014.

Sequence “DEKKKAEEQHKKLEHALREGDPDEAKKMMDPNVRAQVGETKFHGREQMAKFWMTFNKRADHVEFELRDLHIENGRIRIHAVVRADVNGQTVRINIRIILTKHGDQFVAVRIEQK” displayed a protease stability score of 0.499.

In turn, “DEKKVKKVADKVMRVAANGDNETARKLGKPDVTFEAGSNKMRGVEQVDKYYEKVKRQGNELHIKEVKVEGDRAKVKYDIKIGGTEMTVTAEVYIENDKVEKARIEMDEDYEKKVTKG” gave a protease stability score of -0.338.

“DDSEIRTLAKQLAHVIETGDHEHFRKMAPPDVRARIGETEYHGREQVAEALKQERRTADHVQVEDVKASGNNVTLIITQKENGRRDRFKMVFEFHNGKVKFVSQEKQ” displayed a protease stability score of -0.189.

On to “DEEAERIAEEFIRAQQTGDKDRLRKLMDPNARANVGDKRYHGMERWAKDVARTMHEQRVEIKDLKISVQGNKADVHIDLVVDHNGQPRRFDMRLDFRFNNGTIKEVSYDDKR”, for which the protease stability score turned out to be 0.391.

The sequence “DNTHLRMMEQLLKNRSTGDERKVRENADKHVKIDVGDKRLHGREHLQKQQESERTQADVEIQVQTIHDHNGQIVMQFEITVNVNGRPERDTWTLVAEADNGRLKKLSLDLDPDKLKTMES” returned a protease stability score of 0.327.

“DEDELAQKLVEQMVKAIRHGDPHDFVKMIDKNATMDVGDKRLHGREKLEEFIKKLVDKYDHLDAKVSHMDLDNGQIKVNIEIHLVKNGKTDHITLDARADVTNGDARFVDFQWR”: the protease stability score stood at 1.47.
